The assay has as its target T1, GST-TUD1 (Oryza sativa subsp. japonica (Rice), UniProt Q10PI9).
T1 chain: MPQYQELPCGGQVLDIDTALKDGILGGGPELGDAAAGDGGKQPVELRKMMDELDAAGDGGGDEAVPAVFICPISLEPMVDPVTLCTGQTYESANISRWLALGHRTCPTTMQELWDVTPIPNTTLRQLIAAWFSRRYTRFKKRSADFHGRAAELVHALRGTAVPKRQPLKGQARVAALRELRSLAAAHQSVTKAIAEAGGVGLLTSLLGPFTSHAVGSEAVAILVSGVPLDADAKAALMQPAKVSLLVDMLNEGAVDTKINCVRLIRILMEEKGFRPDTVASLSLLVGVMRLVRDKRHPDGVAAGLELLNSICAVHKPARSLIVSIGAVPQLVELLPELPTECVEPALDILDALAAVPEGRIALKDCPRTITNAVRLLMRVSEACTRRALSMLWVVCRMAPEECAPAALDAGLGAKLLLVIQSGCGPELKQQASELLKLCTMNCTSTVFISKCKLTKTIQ
Put plainly: GST pull-down.

B1: D1-tagged His (purified D1 fusion protein) (protein)
chain: MGSSCSRSHSLSEAETTKNAKSADIDRRILQETKAEQHIHKLLLLGAGESGKSTIFKQIKLLFQTGFDEAELRSYTSVIHANVYQTIKILYEGAKELSQVESDSSKYVISPDNQEIGEKLSDIDGRLDYPLLNKELVLDVKRLWQDPAIQETYLRGSILQLPDCAQYFMENLDRLAEAGYVPTKEDVLYARVRTNGVVQIQFSPVGENKRGGEVYRLYDVGGQRNERRKWIHLFEGVNAVIFCAAISEYDQMLFEDETKNRMMETKELFDWVLKQRCFEKTSFILFLNKFDIFEKKIQKVPLSVCEWFKDYQPIAPGKQEVEHAYEFVKKKFEELYFQSSKPDRVDRVFKIYRTTALDQKLVKKTFKLIDESMRRSREGT
Regarding B1, the binding result is on record as “binds”.

Source of the values: PMC3597501 (2013).
